Assay results published in patent US20240182536A1 (MURAL ONCOLOGY, published 2024).

T1: human IL-18 binding protein (human, UniProt O95998 31-194)
T1 sequence (looked up): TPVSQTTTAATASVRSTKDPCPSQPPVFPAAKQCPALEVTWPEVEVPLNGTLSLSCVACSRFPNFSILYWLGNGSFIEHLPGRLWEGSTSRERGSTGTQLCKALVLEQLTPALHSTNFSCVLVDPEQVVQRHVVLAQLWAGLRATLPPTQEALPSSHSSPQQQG

T2: IL-18 receptors on HEK-Blue IL-18 reporter cells (UniProt Q13478 19-541; O95256 20-599, limits assumed)
T2 sequence (looked up) 1: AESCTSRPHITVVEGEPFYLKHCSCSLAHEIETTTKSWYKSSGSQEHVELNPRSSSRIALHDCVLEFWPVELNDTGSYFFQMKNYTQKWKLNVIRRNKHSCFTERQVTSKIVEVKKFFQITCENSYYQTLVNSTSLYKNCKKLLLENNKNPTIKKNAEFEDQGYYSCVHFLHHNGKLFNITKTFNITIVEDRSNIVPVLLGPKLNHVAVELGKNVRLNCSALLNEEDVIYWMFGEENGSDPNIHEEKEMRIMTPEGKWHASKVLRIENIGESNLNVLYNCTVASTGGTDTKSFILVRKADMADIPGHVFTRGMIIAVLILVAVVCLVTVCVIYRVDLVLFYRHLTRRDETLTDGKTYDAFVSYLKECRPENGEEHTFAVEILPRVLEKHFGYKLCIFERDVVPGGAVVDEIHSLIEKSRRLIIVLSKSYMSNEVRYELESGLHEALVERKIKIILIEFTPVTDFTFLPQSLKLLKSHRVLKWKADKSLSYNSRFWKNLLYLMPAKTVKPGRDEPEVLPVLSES
T2 sequence (looked up) 2: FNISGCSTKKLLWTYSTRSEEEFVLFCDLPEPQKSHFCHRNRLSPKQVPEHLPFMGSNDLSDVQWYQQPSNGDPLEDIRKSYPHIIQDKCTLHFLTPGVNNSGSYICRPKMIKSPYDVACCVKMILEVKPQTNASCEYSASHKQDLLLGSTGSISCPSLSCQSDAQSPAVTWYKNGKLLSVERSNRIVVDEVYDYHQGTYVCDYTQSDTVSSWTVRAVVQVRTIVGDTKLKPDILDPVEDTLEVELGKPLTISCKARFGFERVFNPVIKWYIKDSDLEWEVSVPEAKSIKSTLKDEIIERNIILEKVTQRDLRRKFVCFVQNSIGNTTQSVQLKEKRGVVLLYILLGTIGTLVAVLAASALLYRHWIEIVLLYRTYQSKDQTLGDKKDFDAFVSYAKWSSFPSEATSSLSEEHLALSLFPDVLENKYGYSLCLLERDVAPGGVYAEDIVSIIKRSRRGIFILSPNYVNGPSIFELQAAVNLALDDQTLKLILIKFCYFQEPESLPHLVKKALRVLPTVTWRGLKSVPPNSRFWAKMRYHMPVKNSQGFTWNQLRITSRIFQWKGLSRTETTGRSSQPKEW


Key:
[1] = molecular target: T1, human IL-18 binding protein; assay: cell-based or functional assay
[2] = molecular target: T2, IL-18 receptors on HEK-Blue IL-18 …; assay: cell-based or functional assay

Row | Binder | HEK-Blue activity, +100 nM BP, DF-10000 [1] | HEK-Blue activity, +100 nM BP, DF-100,000 [1] | HEK-Blue activity, +100 nM BP, DF-1,000,000 [1] | Ratio (-BP/+BP), DF-10000 [1] | Ratio (-BP/+BP), DF-100,000 [1] | Ratio (-BP/+BP), DF-1,000,000 [1] | HEK-Blue activity, No BP, DF-10000 [2] | HEK-Blue activity, No BP, DF-100,000 [2] | HEK-Blue activity, No BP, DF-1,000,000 [2]
1 | yeast display IL-18 variant K53T, S55F (ligand) YFGKLESKLSVIRNLNDQVLFIDQGNRPLFEDMTDSDMRDNAPRTIFIISMYTDFQPRGMAVTISVKSEKISTLSSENKIISFKEMNPPDNIKDTKSDIIFFQRSVPGHDNKMQFESSSYEGYFLASEKERDLFKLILKKEDELGDRSIMFTVQNED | 0.6 | 0.18 | 0.25 | 1.12 | 1.09 | 0.64 | 0.67 | 0.2 | 0.16
2 | yeast display IL-18 variant K53N, S55I (ligand) YFGKLESKLSVIRNLNDQVLFIDQGNRPLFEDMTDSDMRDNAPRTIFIISMYNDIQPRGMAVTISVKSEKISTLSSENKIISFKEMNPPDNIKDTKSDIIFFQRSVPGHDNKMQFESSSYEGYFLASEKERDLFKLILKKEDELGDRSIMFTVQNED | 0.29 | 0.11 | 0.09 | 1.1 | 1 | 0.99 | 0.32 | 0.11 | 0.09
3 | yeast display IL-18 variant K53G, S55V (ligand) YFGKLESKLSVIRNLNDQVLFIDQGNRPLFEDMTDSDMRDNAPRTIFIISMYGDVQPRGMAVTISVKSEKISTLSSENKIISFKEMNPPDNIKDTKSDIIFFQRSVPGHDNKMQFESSSYEGYFLASEKERDLFKLILKKEDELGDRSIMFTVQNED | 0.57 | 0.15 | 0.1 | 0.98 | 1.01 | 1.03 | 0.56 | 0.15 | 0.1
4 | yeast display IL-18 variant K53D, S55N (ligand) YFGKLESKLSVIRNLNDQVLFIDQGNRPLFEDMTDSDMRDNAPRTIFIISMYDDNQPRGMAVTISVKSEKISTLSSENKIISFKEMNPPDNIKDTKSDIIFFQRSVPGHDNKMQFESSSYEGYFLASEKERDLFKLILKKEDELGDRSIMFTVQNED | 0.47 | 0.12 | 0.09 | 0.95 | 1.05 | 1 | 0.45 | 0.13 | 0.09
5 | yeast display IL-18 variant K53W, S55A (ligand) YFGKLESKLSVIRNLNDQVLFIDQGNRPLFEDMTDSDMRDNAPRTIFIISMYWDAQPRGMAVTISVKSEKISTLSSENKIISFKEMNPPDNIKDTKSDIIFFQRSVPGHDNKMQFESSSYEGYFLASEKERDLFKLILKKEDELGDRSIMFTVQNED | 0.31 | 0.16 | 0.13 | 0.89 | 0.84 | 0.84 | 0.28 | 0.13 | 0.11
6 | yeast display IL-18 variant K53G, S55I (ligand) YFGKLESKLSVIRNLNDQVLFIDQGNRPLFEDMTDSDMRDNAPRTIFIISMYGDIQPRGMAVTISVKSEKISTLSSENKIISFKEMNPPDNIKDTKSDIIFFQRSVPGHDNKMQFESSSYEGYFLASEKERDLFKLILKKEDELGDRSIMFTVQNED | 0.76 | 0.19 | 0.13 | 0.77 | 0.73 | 0.7 | 0.59 | 0.14 | 0.09
